T1: APBA3_1, O96018
T1 sequence (O96018 389-490, limits assumed, looked up): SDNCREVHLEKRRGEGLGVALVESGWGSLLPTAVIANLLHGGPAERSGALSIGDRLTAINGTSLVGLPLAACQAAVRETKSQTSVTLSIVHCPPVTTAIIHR

T2: DFNB31_3, Q9P202
T2 sequence (Q9P202 811-907, limits assumed, looked up): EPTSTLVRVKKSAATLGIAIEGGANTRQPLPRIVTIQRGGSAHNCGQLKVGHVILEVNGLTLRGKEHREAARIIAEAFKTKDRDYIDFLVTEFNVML

T3: DLG3_2, Q92796
T3 sequence (Q92796 221-321, limits assumed, looked up): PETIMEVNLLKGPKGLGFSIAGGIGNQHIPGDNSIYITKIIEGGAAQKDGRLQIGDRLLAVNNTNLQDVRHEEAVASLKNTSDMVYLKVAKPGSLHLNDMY

T4: LIN7A, O14910
T4 sequence (O14910 103-200, limits assumed, looked up): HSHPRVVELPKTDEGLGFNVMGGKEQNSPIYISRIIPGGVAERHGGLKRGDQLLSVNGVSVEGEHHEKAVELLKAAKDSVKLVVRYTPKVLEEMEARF

T5: NHERF3_1, Q5T2W1
T5 sequence (Q5T2W1 4-100, limits assumed, looked up): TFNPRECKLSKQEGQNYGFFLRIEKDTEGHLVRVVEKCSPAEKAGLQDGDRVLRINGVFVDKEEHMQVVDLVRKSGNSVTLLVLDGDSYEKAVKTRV

T6: PARD3B_1, Q8TEW8
T6 sequence (Q8TEW8 196-299, limits assumed, looked up): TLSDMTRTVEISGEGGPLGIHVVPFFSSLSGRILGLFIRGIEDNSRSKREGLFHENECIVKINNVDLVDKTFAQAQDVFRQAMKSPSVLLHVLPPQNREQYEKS

T7: RADIL, Q96JH8
T7 sequence (Q96JH8 971-1071, limits assumed, looked up): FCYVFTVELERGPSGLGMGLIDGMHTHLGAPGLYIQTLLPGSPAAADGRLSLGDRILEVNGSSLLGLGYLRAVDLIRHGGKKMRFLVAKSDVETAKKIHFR

T8: SNTG1, Q9NSN8
T8 sequence (Q9NSN8 52-150, limits assumed, looked up): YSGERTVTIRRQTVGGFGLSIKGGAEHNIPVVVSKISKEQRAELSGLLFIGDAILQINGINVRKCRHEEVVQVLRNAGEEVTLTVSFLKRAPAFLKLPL

T9: SYNJ2BP, P57105
T9 sequence (P57105 8-110, limits assumed, looked up): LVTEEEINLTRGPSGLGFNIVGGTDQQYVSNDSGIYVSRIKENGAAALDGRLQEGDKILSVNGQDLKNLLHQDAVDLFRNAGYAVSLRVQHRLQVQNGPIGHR

T10: TJP3_3, O95049
T10 sequence (O95049 375-456, limits assumed, looked up): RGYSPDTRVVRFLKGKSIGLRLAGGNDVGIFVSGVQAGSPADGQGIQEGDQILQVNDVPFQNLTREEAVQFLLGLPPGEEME

T11: TX1BP3, O14907
T11 sequence (O14907 10-122, limits assumed, looked up): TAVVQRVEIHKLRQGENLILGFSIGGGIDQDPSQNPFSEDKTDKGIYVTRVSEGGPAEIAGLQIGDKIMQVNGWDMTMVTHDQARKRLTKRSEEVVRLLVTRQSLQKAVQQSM


Experiments:
Assay in all cases: holdup assay
Set-up in all cases: key: below the threshold = too weak to quantify, mostly under pKd 3.1 to 4
Conditions in all cases: plain residues with an end cap or a label only (N-terminal biotin on a linker: ado-ado)
[1] = biological target: T1, APBA3_1, O96018
[2] = biological target: CASK, O14936
Chain of CASK, O14936 (O14936 487-570): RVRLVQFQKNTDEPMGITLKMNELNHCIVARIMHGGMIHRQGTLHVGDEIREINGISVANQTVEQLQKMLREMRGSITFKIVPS

[3] = biological target: T2, DFNB31_3, Q9P202
[4] = biological target: DLG2_2, Q15700
[5] = biological target: DLG2_3, Q15700
[6] = biological target: T3, DLG3_2, Q92796
[7] = biological target: DLG5_1, Q8TDM6
Chain of DLG5_1, Q8TDM6 (Q8TDM6 617-713): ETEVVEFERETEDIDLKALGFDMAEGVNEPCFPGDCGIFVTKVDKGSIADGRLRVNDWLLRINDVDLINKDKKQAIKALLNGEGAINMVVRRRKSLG

[8] = biological target: FRMPD2_1, Q68DX3
Chain of FRMPD2_1, Q68DX3 (Q68DX3 770-861): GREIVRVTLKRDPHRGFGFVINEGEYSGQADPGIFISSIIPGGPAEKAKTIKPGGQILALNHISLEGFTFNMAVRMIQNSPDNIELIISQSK

[9] = biological target: FRMPD3, Q5JV73
Chain of FRMPD3, Q5JV73 (Q5JV73 12-100): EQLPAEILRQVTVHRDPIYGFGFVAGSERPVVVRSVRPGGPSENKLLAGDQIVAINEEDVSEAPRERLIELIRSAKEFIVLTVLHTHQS

[10] = biological target: FRMPD4, Q14CM0
Chain of FRMPD4, Q14CM0 (Q14CM0 67-160): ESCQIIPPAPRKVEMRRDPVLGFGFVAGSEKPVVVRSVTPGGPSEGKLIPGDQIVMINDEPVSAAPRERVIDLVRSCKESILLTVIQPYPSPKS

[11] = biological target: GORASP2, Q9H8Y8
[12] = biological target: GRIP2_5, Q9C0E4
Chain of GRIP2_5, Q9C0E4 (Q9C0E4 544-642): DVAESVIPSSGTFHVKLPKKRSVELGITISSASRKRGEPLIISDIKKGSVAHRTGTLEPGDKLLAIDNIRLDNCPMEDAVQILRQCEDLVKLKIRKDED

[13] = biological target: IL16_3, Q14005
Chain of IL16_3, Q14005 (Q14005 1107-1207): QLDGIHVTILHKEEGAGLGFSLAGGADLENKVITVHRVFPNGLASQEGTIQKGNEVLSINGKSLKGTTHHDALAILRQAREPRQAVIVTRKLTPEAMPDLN

[14] = biological target: IL16_4, Q14005
Chain of IL16_4, Q14005 (Q14005 1229-1329): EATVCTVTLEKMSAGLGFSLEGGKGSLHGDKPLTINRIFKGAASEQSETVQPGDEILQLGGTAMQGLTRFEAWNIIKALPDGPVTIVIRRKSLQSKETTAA

[15] = biological target: Inadl_9, Q8NI35
Chain of Inadl_9, Q8NI35 (Q8NI35 1530-1615): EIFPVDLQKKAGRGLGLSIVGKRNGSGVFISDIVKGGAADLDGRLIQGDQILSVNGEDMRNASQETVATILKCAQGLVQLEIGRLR

[16] = biological target: T4, LIN7A, O14910
[17] = biological target: MAGI1_1, Q96QZ7
Chain of MAGI1_1, Q96QZ7 (Q96QZ7 1-106): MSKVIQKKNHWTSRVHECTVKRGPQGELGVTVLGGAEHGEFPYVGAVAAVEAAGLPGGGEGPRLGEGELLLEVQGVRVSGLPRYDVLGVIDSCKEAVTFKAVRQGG

[18] = biological target: MAGI2_3, Q86UL8
Chain of MAGI2_3, Q86UL8 (Q86UL8 600-682): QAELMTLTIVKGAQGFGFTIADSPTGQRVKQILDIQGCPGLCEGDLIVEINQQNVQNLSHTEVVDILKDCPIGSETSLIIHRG

[19] = biological target: MAGI2_6, Q86UL8
Chain of MAGI2_6, Q86UL8 (Q86UL8 1141-1229): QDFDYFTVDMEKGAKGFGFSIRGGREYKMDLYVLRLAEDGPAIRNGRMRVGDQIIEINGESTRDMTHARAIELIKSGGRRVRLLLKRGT

[20] = biological target: T5, NHERF3_1, Q5T2W1
[21] = biological target: NOS1, P29475
Chain of NOS1, P29475 (P29475 9-101): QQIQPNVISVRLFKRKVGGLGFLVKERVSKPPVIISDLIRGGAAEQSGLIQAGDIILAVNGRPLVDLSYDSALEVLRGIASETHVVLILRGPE

[22] = biological target: T6, PARD3B_1, Q8TEW8
[23] = biological target: T7, RADIL, Q96JH8
[24] = biological target: T8, SNTG1, Q9NSN8
[25] = biological target: T9, SYNJ2BP, P57105
[26] = biological target: T10, TJP3_3, O95049
[27] = biological target: T11, TX1BP3, O14907

Row | pKd [1] | pKd [2] | pKd [3] | pKd [4] | pKd [5] | pKd [6] | pKd [7] | pKd [8] | pKd [9] | pKd [10] | pKd [11] | pKd [12] | pKd [13] | pKd [14] | pKd [15] | pKd [16] | pKd [17] | pKd [18] | pKd [19] | pKd [20] | Binder | further results
1 | below the threshold | below the threshold | below the threshold | 3.89 | below the threshold | below the threshold | 3.66 | below the threshold | below the threshold | below the threshold | below the threshold | below the threshold | below the threshold | below the threshold | 3.56 | below the threshold | below the threshold | below the threshold | 3.53 | 4.36 | EWTDERQSKV [GAB3, Q8WWW8] | pKd [21]: below the threshold; pKd [22]: below the threshold; pKd [23]: 3.61; pKd [24]: 3.97; pKd [25]: 3.72; pKd [26]: below the threshold; pKd [27]: 3.72
2 | below the threshold | below the threshold | 3.63 | below the threshold | 3.75 | 4.19 | below the threshold | below the threshold | below the threshold | below the threshold | below the threshold | below the threshold | below the threshold | below the threshold | below the threshold | below the threshold | below the threshold | below the threshold | below the threshold | 3.52 | FTLPAESSEI [PLEKHG7, Q6ZR37] | pKd [21]: below the threshold; pKd [22]: below the threshold; pKd [23]: below the threshold; pKd [24]: below the threshold; pKd [25]: 3.98; pKd [26]: below the threshold; pKd [27]: below the threshold
3 | below the threshold | below the threshold | 3.88 | 5.16 | 4.5 | 5.07 | below the threshold | below the threshold | below the threshold | below the threshold | 3.9 | below the threshold | below the threshold | below the threshold | 3.75 | 3.93 | 3.55 | below the threshold | 3.85 | below the threshold | TGLWKSETTV [ADGRA2, Q96PE1] | pKd [21]: 3.56; pKd [22]: below the threshold; pKd [23]: 3.95; pKd [24]: 4.21; pKd [25]: 5.08; pKd [26]: below the threshold; pKd [27]: 4.87
